# Source: the supplement of paper PMC7125110
# ± gives the standard error. Fewer inactive variants are shown than the library holds.
# B1: glmS ribozyme (parent)
# chain: AUAAAAGCGCCAGAACUACAGAAAUGUAGUUGACGAGGAGGAGGUUUAUCGAAUUUUCGGCGGAUGCCUCCAAA
# Tests used:
# Conditions in all cases: with glucosamine-6-phosphate
# glucosamine-6-phosphate [1] = variants of: B1; assay: self-cleavage kobs at 40 uM GlcN6P; higher = faster cleavage; RNA array
# Procedure, shortened: (§1)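 Barcoded ribozyme variants were transcribed in situ on sequenced MiSeq chips by E. coli RNA polymerase. At 37 °C, a hybridised Cy3 probe tracked them while glucosamine-6-phosphate (40 μM to 10 mM) in HEPES/KCl/Mg(OAc)2 buffer flowed in and tiles were imaged over ~14 h. Per-tile medians of signals normalised to baseline and to non-cleaving reference variants were fit to one- or two-exponential decays, giving kobs. kcat and KM came from weighted Michaelis–Menten fits across concentrations.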
# glucosamine-6-phosphate [2] = variants of: B1; assay: self-cleavage kobs at 10000 uM GlcN6P; higher = faster cleavage; RNA array
# Procedure, shortened: as §1
# glucosamine-6-phosphate [3] = variants of: B1; assay: self-cleavage kobs at 160 uM GlcN6P; higher = faster cleavage; RNA array
# Procedure, shortened: as §1
# glucosamine-6-phosphate [4] = variants of: B1; assay: self-cleavage kobs at 640 uM GlcN6P; higher = faster cleavage; RNA array
# Procedure, shortened: as §1
# glucosamine-6-phosphate [5] = variants of: B1; assay: self-cleavage kobs at 2500 uM GlcN6P; higher = faster cleavage; RNA array
# Procedure, shortened: as §1
Variant,self-cleavage kobs at 40 uM GlcN6P (glucosamine-6-phosphate [1]),self-cleavage kobs at 10000 uM GlcN6P (glucosamine-6-phosphate [2]),self-cleavage kobs at 160 uM GlcN6P (glucosamine-6-phosphate [3]),self-cleavage kobs at 640 uM GlcN6P (glucosamine-6-phosphate [4]),self-cleavage kobs at 2500 uM GlcN6P (glucosamine-6-phosphate [5])
A12G A42C U46C C61G,< 1e-05 s⁻¹,< 1e-05 s⁻¹,,,
A12U G13C C34U G62A U65G,< 1e-05 s⁻¹,,,,
A12U U31G A33G C50U,< 1e-05 s⁻¹,,,,
A12U U30G U47G A48U U49C U69C C70G,< 1e-05 s⁻¹,< 1e-05 s⁻¹,,,
A12G G60C,< 1e-05 s⁻¹,< 1e-05 s⁻¹,< 1e-05 s⁻¹,< 1e-05 s⁻¹,< 1e-05 s⁻¹
A12G G60A,< 1e-05 s⁻¹,< 1e-05 s⁻¹,< 1e-05 s⁻¹,,< 1e-05 s⁻¹
A12U G63A,< 1e-05 s⁻¹,< 1e-05 s⁻¹,< 1e-05 s⁻¹,< 1e-05 s⁻¹,< 1e-05 s⁻¹
C11U G41U A64U,< 1e-05 s⁻¹,< 1e-05 s⁻¹,< 1e-05 s⁻¹,,< 1e-05 s⁻¹
A12U C34G,< 1e-05 s⁻¹,< 1e-05 s⁻¹,< 1e-05 s⁻¹,< 1e-05 s⁻¹,< 1e-05 s⁻¹
A12G G40U U54G,< 1e-05 s⁻¹,0.000231 ± 6e-05 s⁻¹,,,
A12C G43C G66U,< 1e-05 s⁻¹,< 1e-05 s⁻¹,,,
C11U U69G,5.87e-05 ± 1.4e-05 s⁻¹,5.87e-05 ± 8.8e-06 s⁻¹,7.55e-05 ± 2.7e-05 s⁻¹,0.000286 ± 6.5e-05 s⁻¹,9.51e-05 ± 2.1e-05 s⁻¹
C11U U49C,< 1e-05 s⁻¹,,< 1e-05 s⁻¹,< 1e-05 s⁻¹,< 1e-05 s⁻¹
C11G U31A U49G,< 1e-05 s⁻¹,,,,
A12G A36U C50G C70U C71U,0.000102 ± 4.6e-05 s⁻¹,5.91e-05 ± 1.9e-05 s⁻¹,,,
C11U A14G G40U A42C,< 1e-05 s⁻¹,< 1e-05 s⁻¹,,,
G13A G44A U65A,< 1e-05 s⁻¹,,,,
G13C G35A A39G A53C U56C G63C,< 1e-05 s⁻¹,< 1e-05 s⁻¹,,< 1e-05 s⁻¹,< 1e-05 s⁻¹
A12G U46C U49G C70U,< 1e-05 s⁻¹,3.44e-05 ± 1.4e-05 s⁻¹,,,
C11G A15C G29U A64U C70U,< 1e-05 s⁻¹,< 1e-05 s⁻¹,,,
G13C A36G,< 1e-05 s⁻¹,< 1e-05 s⁻¹,< 1e-05 s⁻¹,,
A12G G13U U31C U49G,< 1e-05 s⁻¹,,,,
C11U A12U G43A C61G,< 1e-05 s⁻¹,< 1e-05 s⁻¹,,,
A12C G43U C70A,< 1e-05 s⁻¹,< 1e-05 s⁻¹,,,

Variant,self-cleavage kobs at 40 uM GlcN6P (glucosamine-6-phosphate [1]),self-cleavage kobs at 10000 uM GlcN6P (glucosamine-6-phosphate [2]),self-cleavage kobs at 160 uM GlcN6P (glucosamine-6-phosphate [3]),self-cleavage kobs at 640 uM GlcN6P (glucosamine-6-phosphate [4]),self-cleavage kobs at 2500 uM GlcN6P (glucosamine-6-phosphate [5])
C11G C16A U69G,6.17e-05 ± 2.3e-05 s⁻¹,5.6e-05 ± 1.7e-05 s⁻¹,,,
A12G G59A,< 1e-05 s⁻¹,2.34e-05 ± 1.1e-05 s⁻¹,< 1e-05 s⁻¹,,
A12U A15U A52C,< 1e-05 s⁻¹,< 1e-05 s⁻¹,,,
C11G U31A C50G U57G,0.000129 ± 3.6e-05 s⁻¹,5.06e-05 ± 1.6e-05 s⁻¹,,,7.48e-05 ± 3e-05 s⁻¹
G13C A48U,< 1e-05 s⁻¹,< 1e-05 s⁻¹,,,< 1e-05 s⁻¹
A12U C16A A53U,6.29e-05 ± 1.7e-05 s⁻¹,,,0.000278 ± 8.9e-05 s⁻¹,0.00138 ± 0.00059 s⁻¹
C11G U57A,< 1e-05 s⁻¹,,< 1e-05 s⁻¹,< 1e-05 s⁻¹,
A12U G38A G41A A64G,< 1e-05 s⁻¹,< 1e-05 s⁻¹,,,
A12C A53U G62U,< 1e-05 s⁻¹,< 1e-05 s⁻¹,,,
A12U U45A U49G C50U G63U U69C,< 1e-05 s⁻¹,< 1e-05 s⁻¹,,< 1e-05 s⁻¹,< 1e-05 s⁻¹
G13C A33C G41U,< 1e-05 s⁻¹,< 1e-05 s⁻¹,< 1e-05 s⁻¹,< 1e-05 s⁻¹,< 1e-05 s⁻¹
C11A G44C,< 1e-05 s⁻¹,,< 1e-05 s⁻¹,< 1e-05 s⁻¹,< 1e-05 s⁻¹
C11A G44U,< 1e-05 s⁻¹,,< 1e-05 s⁻¹,< 1e-05 s⁻¹,< 1e-05 s⁻¹
C11A G44A,< 1e-05 s⁻¹,< 1e-05 s⁻¹,,< 1e-05 s⁻¹,< 1e-05 s⁻¹
A12G A36G,< 1e-05 s⁻¹,< 1e-05 s⁻¹,< 1e-05 s⁻¹,< 1e-05 s⁻¹,
G13A G41C C61A,< 1e-05 s⁻¹,,< 1e-05 s⁻¹,< 1e-05 s⁻¹,
G13A G51A,< 1e-05 s⁻¹,< 1e-05 s⁻¹,,< 1e-05 s⁻¹,
G13A G51C,< 1e-05 s⁻¹,< 1e-05 s⁻¹,< 1e-05 s⁻¹,,
A12C G62U,< 1e-05 s⁻¹,< 1e-05 s⁻¹,< 1e-05 s⁻¹,< 1e-05 s⁻¹,< 1e-05 s⁻¹
C11U G63A,< 1e-05 s⁻¹,< 1e-05 s⁻¹,< 1e-05 s⁻¹,< 1e-05 s⁻¹,< 1e-05 s⁻¹
C11U G63U,< 1e-05 s⁻¹,< 1e-05 s⁻¹,,,< 1e-05 s⁻¹
A12U A15G,0.00156 ± 0.00021 s⁻¹,0.0602 ± 0.02 s⁻¹,0.00363 ± 0.00072 s⁻¹,0.0146 ± 0.0029 s⁻¹,0.0139 ± 0.0034 s⁻¹
A12U G37C A42U A48C,< 1e-05 s⁻¹,,,,
C11G G37C,< 1e-05 s⁻¹,< 1e-05 s⁻¹,,,

Variant,self-cleavage kobs at 40 uM GlcN6P (glucosamine-6-phosphate [1]),self-cleavage kobs at 10000 uM GlcN6P (glucosamine-6-phosphate [2]),self-cleavage kobs at 160 uM GlcN6P (glucosamine-6-phosphate [3]),self-cleavage kobs at 640 uM GlcN6P (glucosamine-6-phosphate [4]),self-cleavage kobs at 2500 uM GlcN6P (glucosamine-6-phosphate [5])
A12G A36U A42U G51U A53C,< 1e-05 s⁻¹,,,,
G13A A64U,< 1e-05 s⁻¹,< 1e-05 s⁻¹,,< 1e-05 s⁻¹,< 1e-05 s⁻¹
C11G A14G A39U,< 1e-05 s⁻¹,,,,
A12U U45G U55C,0.000356 ± 7.4e-05 s⁻¹,0.00793 ± 0.002 s⁻¹,,,
G13A G43A C67A,< 1e-05 s⁻¹,,,,
A12U U46C G59A,< 1e-05 s⁻¹,5.26e-05 ± 1.6e-05 s⁻¹,,,
C11G G41A,< 1e-05 s⁻¹,< 1e-05 s⁻¹,,< 1e-05 s⁻¹,< 1e-05 s⁻¹
G13A G51A G62C,< 1e-05 s⁻¹,,,,
C11U G37A G66U,< 1e-05 s⁻¹,,,,
A12C A33U A53U C68A A73C,< 1e-05 s⁻¹,,,,
A12U C71A,0.000512 ± 5.5e-05 s⁻¹,0.0343 ± 0.0084 s⁻¹,0.0012 ± 0.00016 s⁻¹,0.00333 ± 0.00046 s⁻¹,0.0115 ± 0.0027 s⁻¹
C11A U57A G60U,< 1e-05 s⁻¹,,,,
G13A A33C C50A C71U,< 1e-05 s⁻¹,,,,< 1e-05 s⁻¹
A12U G40A G44U,< 1e-05 s⁻¹,,,< 1e-05 s⁻¹,
C11A U30C,< 1e-05 s⁻¹,,< 1e-05 s⁻¹,,4.93e-05 ± 1.8e-05 s⁻¹
A12C G38A G51A G59U C68U,< 1e-05 s⁻¹,< 1e-05 s⁻¹,,,
C11G G44C G60A,< 1e-05 s⁻¹,< 1e-05 s⁻¹,< 1e-05 s⁻¹,,
C11A U31A A39G U55C G66U,< 1e-05 s⁻¹,< 1e-05 s⁻¹,< 1e-05 s⁻¹,,
C11G U31A A33U A36C,< 1e-05 s⁻¹,< 1e-05 s⁻¹,,,< 1e-05 s⁻¹
A12U G51C,< 1e-05 s⁻¹,,< 1e-05 s⁻¹,< 1e-05 s⁻¹,< 1e-05 s⁻¹
A12U A42G C50U C71G,< 1e-05 s⁻¹,< 1e-05 s⁻¹,,,
C11G U45G,< 1e-05 s⁻¹,< 1e-05 s⁻¹,< 1e-05 s⁻¹,< 1e-05 s⁻¹,< 1e-05 s⁻¹
A12U G40A G63C,< 1e-05 s⁻¹,,,,
G13A A15G C16G G32U A42C U46A U57A C68U,< 1e-05 s⁻¹,,,,

Variant,self-cleavage kobs at 40 uM GlcN6P (glucosamine-6-phosphate [1]),self-cleavage kobs at 10000 uM GlcN6P (glucosamine-6-phosphate [2]),self-cleavage kobs at 160 uM GlcN6P (glucosamine-6-phosphate [3]),self-cleavage kobs at 640 uM GlcN6P (glucosamine-6-phosphate [4]),self-cleavage kobs at 2500 uM GlcN6P (glucosamine-6-phosphate [5])
A12U A33G G63A,< 1e-05 s⁻¹,,,,
G13A A15U G41U C50A U54A U57C,< 1e-05 s⁻¹,< 1e-05 s⁻¹,,,
C11U A42C,< 1e-05 s⁻¹,< 1e-05 s⁻¹,< 1e-05 s⁻¹,< 1e-05 s⁻¹,< 1e-05 s⁻¹
A12G U30A A42G U54C,< 1e-05 s⁻¹,6.88e-05 ± 2.4e-05 s⁻¹,,,
C11G U30C U31G,< 1e-05 s⁻¹,,,,
C11U G29U C34U A53U U56A,< 1e-05 s⁻¹,,,,< 1e-05 s⁻¹
C11G U30G A36C A64U U65C,< 1e-05 s⁻¹,< 1e-05 s⁻¹,< 1e-05 s⁻¹,< 1e-05 s⁻¹,< 1e-05 s⁻¹
A12C G32A A48G,< 1e-05 s⁻¹,,,,
A12C G59U C68G,< 1e-05 s⁻¹,,,,
C11G C16A A48C,< 1e-05 s⁻¹,< 1e-05 s⁻¹,,,
C11G A48U,< 1e-05 s⁻¹,< 1e-05 s⁻¹,< 1e-05 s⁻¹,< 1e-05 s⁻¹,
C11G G32A,< 1e-05 s⁻¹,< 1e-05 s⁻¹,< 1e-05 s⁻¹,< 1e-05 s⁻¹,
G13A C61G C68A C70U,< 1e-05 s⁻¹,,,,
A12C G38A,< 1e-05 s⁻¹,,< 1e-05 s⁻¹,,
C11U G38U A52U,< 1e-05 s⁻¹,< 1e-05 s⁻¹,< 1e-05 s⁻¹,< 1e-05 s⁻¹,
C11U A12U G13U A64C,< 1e-05 s⁻¹,< 1e-05 s⁻¹,,,
G13A G43U,< 1e-05 s⁻¹,,< 1e-05 s⁻¹,< 1e-05 s⁻¹,
A12G A48U,< 1e-05 s⁻¹,2.34e-05 ± 7.6e-06 s⁻¹,< 1e-05 s⁻¹,,
A12G A48C,< 1e-05 s⁻¹,,,,
C11U U31A G38U U49A U54G,< 1e-05 s⁻¹,,,,
C11U U30C C50U,< 1e-05 s⁻¹,< 1e-05 s⁻¹,,,
A12U G13C A15C C34G,< 1e-05 s⁻¹,< 1e-05 s⁻¹,,< 1e-05 s⁻¹,< 1e-05 s⁻¹
C11G G38A,< 1e-05 s⁻¹,,,< 1e-05 s⁻¹,< 1e-05 s⁻¹
